Measured values: article PMC8389370, “pUL21 is a viral phosphatase adaptor that promotes herpes simplex virus replication and spread” (PLoS Pathogens, 2021)

Target: T1, StrepII-CERT (human, UniProt Q9Y5P4-2 1-598, predominantly hyperphosphorylated (CERT^P); sites not given)
T1 construct: human CERT, UniProt Q9Y5P4-2, codon-optimised synthetic gene in pcDNA-SW; also called Strep-CERT; CERT^P; source: Freestyle 293F cells, transfected, purified (StrepTrap HP, SEC); not shown: StrepII-tag, N-terminal, kept
T1 sequence (looked up): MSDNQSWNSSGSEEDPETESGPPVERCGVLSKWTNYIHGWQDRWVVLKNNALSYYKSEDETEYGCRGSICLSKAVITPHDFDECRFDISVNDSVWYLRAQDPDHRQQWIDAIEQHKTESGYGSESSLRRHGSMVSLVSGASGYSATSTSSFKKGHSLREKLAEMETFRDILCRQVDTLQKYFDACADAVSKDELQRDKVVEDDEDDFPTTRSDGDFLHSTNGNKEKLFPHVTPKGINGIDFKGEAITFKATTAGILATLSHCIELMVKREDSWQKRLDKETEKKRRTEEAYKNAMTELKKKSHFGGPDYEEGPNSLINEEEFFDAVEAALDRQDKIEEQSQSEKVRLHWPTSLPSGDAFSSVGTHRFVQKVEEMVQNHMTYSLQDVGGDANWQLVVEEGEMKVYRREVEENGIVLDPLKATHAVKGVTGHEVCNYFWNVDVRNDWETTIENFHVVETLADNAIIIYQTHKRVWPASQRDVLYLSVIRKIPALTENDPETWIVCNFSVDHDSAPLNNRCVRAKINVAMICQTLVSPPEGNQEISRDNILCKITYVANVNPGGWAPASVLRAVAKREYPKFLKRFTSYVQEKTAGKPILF
Assay: pull-down; pUL21-GST (1 μM) on glutathione magnetic beads, 5 μM purified prey, 60 min at room temperature, 20 mM Tris pH 8.5, 200 mM NaCl, 0.1% NP-40, 1 mM DTT, 1 mM EDTA; eluted with glutathione, Coomassie SDS-PAGE
Settings: both partners purified

B1: pUL21-GST (natural protein)
chain: MELSYATTMHYRDVVFYVTTDRNRAYFVCGGCVYSVGRPCASQPGEIAKFGLVVRGTGPDDRVVANYVRSELRQRGLQDVRPIGEDEVFLDSVCLLNPNVSSELDVINTNDVEVLDECLAEYCTSLRTSPGVLISGLRVRAQDRIIELFEHPTIVNVSSHFVYTPSPYVFALAQAHLPRLPSSLEALVSGLFDGIPAPRQPLDAHNPRTDVVITGRRAPRPIAGSGAGSGGAGAKRATVSEFVQVKHIDRVGPAGVSPAPPPNNTDSSSLVPGAQDSAPPGPTLRELWWVFYAADRALEEPRADSGLTREEVRAVRGFREQAWKLFGSAGAPRAFIGAALGLSPLQKLAVYYYIIHRERRLSPFPALVRLVGRYTQRHGLYVPRPDDPVLADAINGLFRDALAAGTTAEQLLMFDLLPPKDVPVGSDVQADSTALLRFIESQRLAVPGGVISPEHVAYLGAFLSVLYAGRGRMSAATHTARLTGVTSLVLAVGDVDRLSAFDRGAAGAASRTRAAGYLDVLLTVRLARSQHGQSV
notes: HSV-1 strain KOS pUL21, UniProt F8RG07; the plasmid for the GST fusion is not described; also called Purified recombinant pUL21-GST; source: E. coli T7 Express lysY/Iq, purified (glutathione Sepharose 4B, SEC)
  binding result: binds
